Experiments:
yeast PEX7 [1] = assay: Bead-binding assay: PEX5 variants, PEX7 and PTS2 cargo (Extended Data Fig. 2a,c, 6b); parameters: species or system yeast (S. cerevisiae); conditions: 1 µM PEX7–GFP
Description: Cysteine-containing peptides were covalently conjugated to thiol-reactive SulfoLink coupling resin (Thermo Fisher, catalogue number 20401) according to the manufacturer’s instructions. The prepared beads were then mixed with Assay Buffer containing the fluorescently labelled protein as well as additional components indicated in the text, and the resulting bead suspensions were transferred to a 384-well glass-bottomed plate (Cellvis, P384-1.5H-N). GST-fusion proteins were instead mixed with glutathione agarose 4B (Prometheus, 20-543) in Assay Buffer containing the fluorescently labelled protein and additional components indicated in the text; the resulting bead suspensions were then transferred to a glass-bottomed plate as above. The plates were incubated at RT for the durations specified in the text and directly imaged on the spinning-disk confocal platform described earlier for peroxisomal import reactions in Xenopus egg extract. Note that imaging the beads directly in the binding reaction preserves the equilibrium and thereby allows even weak interactions to be detected. Fluorescence was collected through a Nikon ×10 0.45 NA Plan Apo air objective, and images were acquired using the Nikon NIS-Elements software and a 16-bit digitizer without binning. Imaging parameters were configured to maximize the SNR while avoiding saturation. […]

[2] = tested on: S. cerevisiae cells expressing RFP–FOX2 and POT1–GFP; assay: Peroxisomal protein import assay in S. cerevisiae; type: cell-based; conditions: yeast expressing PTS1 and PTS2 matrix proteins
Protocol: Peroxisome biogenesis was induced in S. cerevisiae using an established procedure. Briefly, cells were subcultured twice in YPD medium to mid-log phase (optical density at 600 nm (OD600) ≈ 2), harvested through centrifugation at 2,000g and 30 °C for 10 min, sterilely resuspended to an OD600 of 0.5 in YPGO medium (1% wt/vol yeast extract, 2% wt/vol peptone, 2% vol/vol glycerol, 0.1% wt/vol oleic acid and 0.25% vol/vol Tween 40) and cultured for an additional 16 h at 30 °C. For experiments involving PEX7 riboswitch constructs, cultures in YPGO were supplemented with 250 µM tetracycline (Millipore Sigma, T7660) as described previously.
S. cerevisiae cells expressing RFP–FOX2 and POT1–GFP (MSB-462) were induced to form peroxisomes as described earlier. […]
The cells were imaged on a spinning-disk confocal platform consisting of a Nikon Eclipse Ti inverted microscope, a Yokagawa CSU-X1 spinning-disk confocal scanner, a Hamamatsu ORCA-Fusion BT sCMOS camera and a Prior Proscan II motorized stage. […] Fluorescence was collected using a red-emission ET605/52 m (605 ± 26 nm) or a green-emission ET525/50 m (525 ± 25 nm) single-band bandpass filter (Chroma), respectively, through either a Nikon ×100 1.45 numerical aperture (NA) Plan Apo Lambda or Nikon ×40 0.95 NA Plan Apo Lambda air objective. […]

[3] = tested on: PEX7–FLAG in peroxisome-containing membrane fraction; assay: Cell fractionation and FLAG immunoprecipitation / immunoblot of PEX7–FLAG and PEX39–FLAG; type: cell-based, S. cerevisiae; conditions: PEX13 lacking the KPWE motif; yeast in oleic acid
Protocol: Samples in Laemmli buffer (50 mM Tris–HCl pH 6.8 at RT, 10% vol/vol glycerol, 2% wt/vol SDS, 0.01% bromophenol blue and 700 mM β-mercaptoethanol) were heated for 5 min at 95 °C and then electrophoretically resolved under denaturing conditions on 4–20% TGX precast polyacrylamide gels (Bio-Rad, catalogue number 5671095). For immunoblotting, samples were transferred from the gels to Immun-Blot PVDF membranes (Bio-Rad, catalogue number 13709A06) for 12 h at 25 V and RT in 25 mM Tris, 192 mM glycine and 10% vol/vol methanol. The membranes were blotted in 20 mM Tris–HCl pH 7.5 at RT, 150 mM NaCl, 0.01% vol/vol Tween 20 and 3% wt/vol fat-free milk solids (Apex, catalogue number 20241) using antibodies to the FLAG epitope (Sigma, F7425) and compatible horseradish peroxidase-conjugated secondary antibodies (Cytiva, NA934). The blots were developed by chemiluminescence (Perkin Elmer, NEL103001EA) and scanned on an Amersham ImageQuant 800 imaging system. For staining with Coomassie blue, gels were fixed in 50% vol/vol methanol and 10% vol/vol acetic acid for 30 min at RT, incubated for 30 min in 50% vol/vol methanol, 10% vol/vol acetic acid and 0.001% wt/vol Coomassie brilliant blue R-250 (Bio-Rad), and destained overnight in 10% vol/vol acetic acid before washing into water. The stained gels were digitized on an Epson Perfection V700 scanner using the Epson Scan 2 software. […]

yeast PEX7 [4] = biological target: T1, yeast PEX7 (yeast (S. cerevisiae), UniProt P39108 1-375); assay: pull-down; quantitative: glutathione agarose with 1 µM yeast PEX7 and varying concentrations of GST-tagged PEX39 variants, Assay Buffer, 25 °C, 1 h; beads sedimented, PEX7 left in the supernatant quantified by SDS–PAGE and Coomassie; observed binding constants (Kobs); conditions: both partners purified
T1 construct: PEX7, yeast (S. cerevisiae); also called purified recombinant yeast PEX7; not shown: GST, N-terminal, cleaved
T1 sequence (looked up): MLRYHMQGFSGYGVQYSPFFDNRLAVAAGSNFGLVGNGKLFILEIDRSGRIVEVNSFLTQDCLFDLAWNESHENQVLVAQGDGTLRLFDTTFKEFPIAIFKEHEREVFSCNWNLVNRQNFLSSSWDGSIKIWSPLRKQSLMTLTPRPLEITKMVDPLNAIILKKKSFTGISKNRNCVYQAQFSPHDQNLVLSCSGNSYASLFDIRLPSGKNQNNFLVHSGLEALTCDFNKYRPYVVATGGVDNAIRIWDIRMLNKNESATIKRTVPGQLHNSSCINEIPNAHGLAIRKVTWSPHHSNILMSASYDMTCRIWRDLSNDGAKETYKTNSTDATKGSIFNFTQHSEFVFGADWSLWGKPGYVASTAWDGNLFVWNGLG

[5] = biological target: T2, yeast PEX7 fused at the C terminus to GFP (PEX7–GFP) (yeast (S. cerevisiae), UniProt P39108 1-375); assay: bead-binding assay (fluorescence on beads by spinning-disk confocal microscopy); GST-tagged protein on glutathione beads; GFP-fused partner in solution (1 µM each in Extended Data Fig. 9a); 1 h, RT; conditions: both partners purified
T2 construct: PEX7, yeast (S. cerevisiae); not shown: GST, N-terminal, cleaved; GFP, C-terminal, kept
T2 sequence (looked up): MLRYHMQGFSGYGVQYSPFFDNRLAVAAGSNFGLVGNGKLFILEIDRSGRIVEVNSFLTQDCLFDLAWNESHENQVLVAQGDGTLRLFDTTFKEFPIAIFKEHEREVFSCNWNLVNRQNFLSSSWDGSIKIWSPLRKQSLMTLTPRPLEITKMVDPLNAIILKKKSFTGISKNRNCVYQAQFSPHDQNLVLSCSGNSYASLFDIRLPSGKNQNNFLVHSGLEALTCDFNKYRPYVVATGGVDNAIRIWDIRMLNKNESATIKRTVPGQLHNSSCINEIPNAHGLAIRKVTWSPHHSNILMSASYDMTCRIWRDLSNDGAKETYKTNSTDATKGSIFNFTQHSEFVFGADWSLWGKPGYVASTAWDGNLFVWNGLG

yeast PEX7 [6] = biological target: T1, yeast PEX7; assay: pull-down; competition: glutathione beads with yeast PEX7 and GST-tagged PEX39 ∆APH (each 1 µM), 30 min at 25 °C, then varying concentrations of peptide for 1 h; beads sedimented, supernatant on SDS–PAGE with Coomassie; competitive-binding isotherm, observed binding constants (Kobs); conditions: both partners purified
[7] = biological target: T2, yeast PEX7 fused at the C terminus to …; assay: bead-binding assay (fluorescence on beads by spinning-disk confocal microscopy); peptide or YG-domain polypeptide conjugated through a cysteine to thiol-reactive beads; PEX7–GFP or GFP alone in Assay Buffer (25 mM HEPES-NaOH pH 7.8, 150 mM NaCl, 1 mM TCEP), RT, 1 h (Fig. 3b); beads imaged directly in the binding reaction; conditions: both partners purified

Molecule: SQRLQSIKDHLVESRS [PTS2 peptide]
- Recruitment of PEX7–GFP to PEX5-21-coated beads (yeast PEX7 [1]): could recruit PEX7–GFP only in the presence of the PTS2 peptide

B1: PEX7–FLAG: PEX7 with a short SG linker and a FLAG epitope tag at the C terminus (protein, UniProt O00628 1-323, looked up)
Peroxisomal targeting signal …: MSAVCGGAARMLRTPGRHGYAAEFSPYLPGRLACATAQHYGIAGCGTLLILDPDEAGLRLFRSFDWNDGLFDVTWSENNEHVLITCSGDGSLQLWDTAKAAGPLQVYKEHAQEVYSVDWSQTRGEQLVVSGSWDQTVKLWDPTVGKSLCTFRGHESIIYSTIWSPHIPGCFASASGDQTLRIWDVKAAGVRIVIPAHQAEILSCDWCKYNENLLVTGAVDCSLRGWDLRNVRQPVFELLGHTYAIRRVKFSPFHASVLASCSYDFTVRFWNFSKPDSLLETVEHHTEFTCGLDFSLQSPTQVADCSWDETIKIYDPACLTIPA
modifications: C-terminal SG linker and FLAG tag
- PEX7–FLAG function in protein import [2]: fully functional
- Enrichment in the membrane fraction [3]: considerably enriched in the membrane fraction in the absence of the KPWE motif

B2: GST-tagged wild-type yeast PEX39 (GST–PEX39) (natural protein, UniProt P47087 1-132, looked up)
chain: MAAGGELSYEELLDHILNNKPIPNIVEVPNVTLDEGLASTPSLRPRPRPWEGQLQHQSHQGSLDKPNISLDIDQESLEGMTSLTRLSECYDIQSKLQINDSDNDNDDNNNDNNKGDGNDDDNNTVTANPTAR
notes: PEX39, yeast; also called WT; PEX39-coated beads; source: E. coli BL21 Rosetta 2(DE3), purified, GST-tagged; not shown: GST, N-terminal, kept
- binding result (yeast PEX7 [4]): binds
- binding result [5]: binds

B3: KPWE peptide (residues 2–20 of S. cerevisiae PEX13 with an additional N-terminal cysteine) (peptide)
peptide: CSSTAVPRPKPWETSASLEE
notes: additional N-terminal cysteine for coupling to thiol-reactive agarose beads; PEX13, S. cerevisiae, residues 2–20; also called peptide comprising the KPWE motif of yeast PEX13; source: synthetic peptide (Genscript)
- binding result (yeast PEX7 [6]): binds
- binding result [7]: binds
